From US20250262210A1 (TRUSTEES OF COLUMBIA UNIVERSITY IN THE CITY OF NEW YORK, published 2025)

Legend:
Assay in all cases: IP/MS, LZTR1 R810W-FLAG, U87
SEC24D = target: T1, SEC24D (human, UniProt O94855 1-1032, limits assumed)
T1 sequence (looked up): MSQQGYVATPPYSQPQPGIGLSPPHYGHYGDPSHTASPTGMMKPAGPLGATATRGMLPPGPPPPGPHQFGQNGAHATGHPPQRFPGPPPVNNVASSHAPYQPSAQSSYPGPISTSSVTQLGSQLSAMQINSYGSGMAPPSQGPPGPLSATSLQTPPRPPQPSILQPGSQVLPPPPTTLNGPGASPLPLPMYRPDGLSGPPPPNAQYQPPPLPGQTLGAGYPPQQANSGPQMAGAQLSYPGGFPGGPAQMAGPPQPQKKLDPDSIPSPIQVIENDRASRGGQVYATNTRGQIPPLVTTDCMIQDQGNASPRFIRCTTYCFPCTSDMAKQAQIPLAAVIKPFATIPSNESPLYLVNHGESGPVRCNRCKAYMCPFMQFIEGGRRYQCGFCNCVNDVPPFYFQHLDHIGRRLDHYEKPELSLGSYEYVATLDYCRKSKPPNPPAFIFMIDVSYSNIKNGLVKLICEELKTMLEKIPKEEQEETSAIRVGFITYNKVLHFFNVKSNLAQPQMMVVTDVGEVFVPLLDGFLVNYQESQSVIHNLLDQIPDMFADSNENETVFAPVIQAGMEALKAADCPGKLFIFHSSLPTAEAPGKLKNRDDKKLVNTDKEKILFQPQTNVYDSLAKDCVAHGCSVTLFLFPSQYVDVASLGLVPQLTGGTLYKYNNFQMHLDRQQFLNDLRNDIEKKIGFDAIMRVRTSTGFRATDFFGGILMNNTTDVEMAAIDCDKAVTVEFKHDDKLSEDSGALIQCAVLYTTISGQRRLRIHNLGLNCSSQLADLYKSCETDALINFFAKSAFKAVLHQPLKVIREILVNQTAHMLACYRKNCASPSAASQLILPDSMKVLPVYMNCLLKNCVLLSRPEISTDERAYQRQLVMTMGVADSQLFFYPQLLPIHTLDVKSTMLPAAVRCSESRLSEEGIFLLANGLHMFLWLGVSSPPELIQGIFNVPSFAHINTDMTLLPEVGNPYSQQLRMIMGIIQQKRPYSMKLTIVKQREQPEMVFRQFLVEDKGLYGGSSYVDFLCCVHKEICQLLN
In short: (§1)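 Gel slices were reduced with 5 mM DTT, alkylated with 11 mM IAA and digested overnight at 37° C. with trypsin. Peptides were analysed on an Orbitrap Fusion Tribrid by LC-MS/MS.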

PEAK1 = PEAK1 (human, UniProt Q9H792 1-1746)
PEAK1, sequence (Q9H792 whole entry): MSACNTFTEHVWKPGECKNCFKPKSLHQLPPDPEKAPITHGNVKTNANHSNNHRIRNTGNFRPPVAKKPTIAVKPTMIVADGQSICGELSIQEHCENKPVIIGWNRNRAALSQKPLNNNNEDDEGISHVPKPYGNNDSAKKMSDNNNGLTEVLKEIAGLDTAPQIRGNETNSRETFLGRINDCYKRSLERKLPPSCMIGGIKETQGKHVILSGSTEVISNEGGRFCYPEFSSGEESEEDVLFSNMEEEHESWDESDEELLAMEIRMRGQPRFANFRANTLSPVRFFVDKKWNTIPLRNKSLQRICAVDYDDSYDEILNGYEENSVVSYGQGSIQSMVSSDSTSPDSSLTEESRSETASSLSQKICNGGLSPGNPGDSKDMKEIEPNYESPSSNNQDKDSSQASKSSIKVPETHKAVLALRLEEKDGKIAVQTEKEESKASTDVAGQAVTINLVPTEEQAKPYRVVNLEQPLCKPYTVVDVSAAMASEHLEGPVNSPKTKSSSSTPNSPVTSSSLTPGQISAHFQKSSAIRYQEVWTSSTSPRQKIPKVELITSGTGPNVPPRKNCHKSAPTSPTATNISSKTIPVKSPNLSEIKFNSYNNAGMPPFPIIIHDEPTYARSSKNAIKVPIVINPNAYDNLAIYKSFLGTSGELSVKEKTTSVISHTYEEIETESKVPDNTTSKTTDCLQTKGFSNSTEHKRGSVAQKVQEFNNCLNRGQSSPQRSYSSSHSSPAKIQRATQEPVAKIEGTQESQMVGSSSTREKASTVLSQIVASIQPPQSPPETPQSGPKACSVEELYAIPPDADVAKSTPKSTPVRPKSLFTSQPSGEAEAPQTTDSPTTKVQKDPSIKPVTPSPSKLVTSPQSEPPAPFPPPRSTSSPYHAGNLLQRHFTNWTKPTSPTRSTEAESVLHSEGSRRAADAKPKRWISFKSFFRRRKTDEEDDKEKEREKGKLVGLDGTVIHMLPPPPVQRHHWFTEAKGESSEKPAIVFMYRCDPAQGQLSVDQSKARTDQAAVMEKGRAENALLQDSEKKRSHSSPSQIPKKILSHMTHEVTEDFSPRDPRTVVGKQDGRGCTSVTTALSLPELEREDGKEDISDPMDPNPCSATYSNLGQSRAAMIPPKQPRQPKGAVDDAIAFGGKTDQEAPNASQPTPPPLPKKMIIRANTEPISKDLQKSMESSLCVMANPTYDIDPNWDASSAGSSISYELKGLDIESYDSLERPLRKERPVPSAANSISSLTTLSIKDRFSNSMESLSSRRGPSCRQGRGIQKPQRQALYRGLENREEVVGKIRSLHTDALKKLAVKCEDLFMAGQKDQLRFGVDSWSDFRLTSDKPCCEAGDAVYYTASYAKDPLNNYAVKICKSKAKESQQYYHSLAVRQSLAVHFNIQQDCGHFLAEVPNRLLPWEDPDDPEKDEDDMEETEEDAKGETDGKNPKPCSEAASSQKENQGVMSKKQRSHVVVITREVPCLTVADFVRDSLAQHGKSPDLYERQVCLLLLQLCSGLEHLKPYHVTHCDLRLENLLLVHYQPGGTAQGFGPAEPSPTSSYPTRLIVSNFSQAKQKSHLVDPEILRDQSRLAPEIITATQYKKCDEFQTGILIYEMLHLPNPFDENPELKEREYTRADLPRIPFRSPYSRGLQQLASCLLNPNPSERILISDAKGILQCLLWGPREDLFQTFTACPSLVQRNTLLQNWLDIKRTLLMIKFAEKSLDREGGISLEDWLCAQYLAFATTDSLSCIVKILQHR
In short: as §1

GTF3C2 = target: T2, GTF3C2 (human, UniProt Q8WUA4 1-911, limits assumed)
T2 sequence (looked up): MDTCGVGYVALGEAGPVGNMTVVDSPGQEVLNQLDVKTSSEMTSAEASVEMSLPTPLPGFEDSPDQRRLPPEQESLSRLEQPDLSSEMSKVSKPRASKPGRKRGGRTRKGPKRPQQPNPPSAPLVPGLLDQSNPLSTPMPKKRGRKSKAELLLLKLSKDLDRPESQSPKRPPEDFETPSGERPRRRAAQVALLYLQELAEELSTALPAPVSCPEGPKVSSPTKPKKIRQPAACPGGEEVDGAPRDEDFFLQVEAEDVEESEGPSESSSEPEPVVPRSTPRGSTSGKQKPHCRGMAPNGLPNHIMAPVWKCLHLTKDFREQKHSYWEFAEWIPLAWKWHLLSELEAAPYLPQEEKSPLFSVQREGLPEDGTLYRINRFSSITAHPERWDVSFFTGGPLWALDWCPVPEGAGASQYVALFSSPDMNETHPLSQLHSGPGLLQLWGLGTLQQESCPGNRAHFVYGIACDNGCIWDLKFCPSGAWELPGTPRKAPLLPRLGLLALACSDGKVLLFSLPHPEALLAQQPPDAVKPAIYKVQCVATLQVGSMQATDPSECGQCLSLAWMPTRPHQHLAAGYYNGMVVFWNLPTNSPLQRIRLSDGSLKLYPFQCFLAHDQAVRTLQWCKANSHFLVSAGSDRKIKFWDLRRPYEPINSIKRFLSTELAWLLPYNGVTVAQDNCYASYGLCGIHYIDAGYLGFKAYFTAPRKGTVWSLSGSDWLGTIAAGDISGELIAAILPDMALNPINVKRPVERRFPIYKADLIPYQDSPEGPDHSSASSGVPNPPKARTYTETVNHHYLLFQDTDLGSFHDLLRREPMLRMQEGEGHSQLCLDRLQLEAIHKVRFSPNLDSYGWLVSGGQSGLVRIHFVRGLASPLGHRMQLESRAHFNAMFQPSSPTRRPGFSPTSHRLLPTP
In short: as §1

Measured: binding result

B1: LZTR1 R810W-FLAG (other, human, UniProt Q8N653 1-840, looked up)
chain: MAGPGSTGGQIGAAALAGGARSKVAPSVDFDHSCSDSVEYLTLNFGPFETVHRWRRLPPCDEFVGARRSKHTVVAYKDAIYVFGGDNGKTMLNDLLRFDVKDCSWCRAFTTGTPPAPRYHHSAVVYGSSMFVFGGYTGDIYSNSNLKNKNDLFEYKFATGQWTEWKIEGRLPVARSAHGATVYSDKLWIFAGYDGNARLNDMWTIGLQDRELTCWEEVAQSGEIPPSCCNFPVAVCRDKMFVFSGQSGAKITNNLFQFEFKDKTWTRIPTEHLLRGSPPPPQRRYGHTMVAFDRHLYVFGGAADNTLPNELHCYDVDFQTWEVVQPSSDSEVGGAEVPERACASEEVPTLTYEERVGFKKSRDVFGLDFGTTSAKQPTQPASELPSGRLFHAAAVISDAMYIFGGTVDNNIRSGEMYRFQFSCYPKCTLHEDYGRLWESRQFCDVEFVLGEKEECVQGHVAIVTARSRWLRRKITQARERLAQKLEQEAAPVPREAPGVAAGGARPPLLHVAIREAEARPFEVLMQFLYTDKIKYPRKGHVEDVLLIMDVYKLALSFQLCRLEQLCRQYIEASVDLQNVLVVCESAARLQLSQLKEHCLNFVVKESHFNQVIMMKEFERLSSPLIVEIVRRKQQPPPRTPLDQPVDIGTSLIQDMKAYLEGAGAEFCDITLLLDGHPRPAHKAILAARSSYFEAMFRSFMPEDGQVNISIGEMVPSRQAFESMLRYIYYGEVNMPPEDSLYLFAAPYYYGFYNNRLQAYCKQNLEMNVTVQNVLQILEAADKTQALDMKRHCLHIIVHQFTKVSKLPTLWSLSQQLLLDIIDSLASHISDKQCAELGADI
notes: Stably expressed in U87 cells by lentivirus; also called LZTR1-FLAG-R810W; LZTR1 RW; not shown: FLAG tag
binds: all assays above
